Consider one molecule from patent US20040223966A1 (Pfizer, published 2004).

The target in the experiment is T1, ActRIIB-Fc (human).
T1 construct: The leader is stated as aa 1-21; also called ActRIIB fusion polypeptide; recombinant ActRIIB-Fc
In words: ELISA: ActRIIB-Fc coated at 1 ug/ml, biotinylated ligand titrated, SA-HRP detection. The method, then: Biotinylated mature BMP-11 was prepared from BMP-11 latent complex in the same manner as described above. Recombinant ActRIIB-Fc, prepared as described in Examples 3 and 4, was coated on 96-well flat-bottom assay plates (Costar, NY, Cat. No. 3590) at 1 μg/ml in 0.2 M sodium carbonate buffer (pH 10) overnight at 4° C. Plates were then blocked with 1 mg/ml bovine serum albumin and washed following standard ELISA protocol. 100 μl aliquots of biotinylated GDF-8 or BMP-11 at various concentrations were added to the blocked ELISA plate, incubated for 1 hr and washed. The amount of bound GDF-8 or BMP-11 was detected by Streptavidin-Horseradish peroxidase (SA-HRP, BD PharMingen, San Diego, Calif., Cat. No. 13047E) followed by the addition of TMB (KPL, Gaithersburg, Md., Cat. No. 50-76-04). Colorimetric measurements were done at […] in a Molecular Devices microplate reader.

T1 sequence (chain, as listed by the source): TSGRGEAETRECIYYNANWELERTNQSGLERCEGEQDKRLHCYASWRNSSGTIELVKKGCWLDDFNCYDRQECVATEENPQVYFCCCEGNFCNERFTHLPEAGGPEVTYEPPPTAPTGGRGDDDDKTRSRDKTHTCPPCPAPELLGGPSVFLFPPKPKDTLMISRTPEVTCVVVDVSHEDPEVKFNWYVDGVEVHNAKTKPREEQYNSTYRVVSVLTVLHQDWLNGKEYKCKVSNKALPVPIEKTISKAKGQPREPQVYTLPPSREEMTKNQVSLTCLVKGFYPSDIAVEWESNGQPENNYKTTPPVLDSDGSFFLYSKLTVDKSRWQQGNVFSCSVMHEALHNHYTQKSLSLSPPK

B1: biotinylated mature BMP-11 (ligand, human, UniProt O95390 299-407, looked up)
chain: NLGLDCDEHSSESRCCRYPLTVDFEAFGWDWIIAPKRYKANYCSGQCEYMFMQKYPHTHLVQQANPRGSAGPCCTPTKMSPINMLYFNDKQQIIYGKIPGMVVDRCGCS
modifications: biotinylated with EZ-link Sulfo-NHS-Biotin, in the same manner as GDF-8; sites not stated
notes: mature; Active mature BMP-11 dimer purified from a cell line expressing recombinant human BMP-11; also called biotinylated BMP-11; GDF-11
For B1, the EC50 worked out at 0.04 µg/mL.
